Test [1] concerns S. aureus. Nature of the test: Therapy of established S. aureus mastitis infections. In kind it is in vivo, S. aureus (in lactating Holstein dairy cattle). The method, then:
The percentage of quarters clearing the infection for greater than 1 milking (RESPONDING), as compared to the percentage of quarters which actually cure their infections (CURE) is a measure of the failure of the host cells to kill the bacteria. The relapse rate is the greatest for r-BoIL-2 (combined relapse rate of 40% for the 10 mg dose X's 3). […] Furthermore, if activation of the host cells is effective, as indicated by the r-BoIL-2 and r-BoGM-CSF, then a combination therapy with r-BoIL-1 or antibiotics is useful.
^1 S. aureus infections are established 2-3 weeks prior to treatment.
Treatments are administered after the AM or PM milking by 1-3 successive
intramammary infusions. A total of 120 mammary glands from 28 different
lactating Holstein dairy cattle are used. Recombinant bovine
interleukin1(IL-1) and interleukin2(IL-2) are obtained from IMMUNEX Corp.
Seattle, WA. Na cephapirin is prepared is PBS; and CefaLak ®
(BristolMeyers) is used according to package# insert instructions.
^2 Cytokines are infused intramammary through the teat canal after th
PM milking at the indicated intervals. The total dose is delivered in a
total volume of 10 ml of sterile PBS. The biological activity of rBoIL-1
and rBoIL-2 is 32,000 Units/μg and 22,000 Units/μg, respectively. A
total dose per infusion 200 mg of Na cephapirin and CefaLak ® is
administered after consecutive PM and AM milkings, according to described
^3 The % RESPONDING = quarters which transiently (> 1 milking) are
free of S. aureus divided by the total number of quarters treated.
^4 The % CURED QUARTERS = # of quarters which clear their infection
and remain free of S. aureus divided by the total number of quarters
treated. Infections are considered to have relapsed if there are > 1 CFUs
from three consecutive AM milkings, or > 20 CFUs for two consecutive afte
therapy at anytime during the 14 day monitoring period.
^5 The % RELAPSE = [1 - {[…]}] ×

The next test relates to Bovine Mammary Gland. As to the kind of experiment: Dose response of bovine mammary gland to intramammary infusion: somatic cell influx into milk. In kind it is in vivo, bovine (Holstein dairy cattle). Here is the method:
FIG. 1: Dose Response of Bovine Mammary Gland to Intramammary Infusion of Recombinant Cytokines
Five fold serial dilutions of r-BolL-1 (recombinant bovine interleukin-1) from 312.5 μg to […]: r-BoIL-2 (recombinant bovine interleukin-2) from 40 mg to 0.1 mg: and r-BoGM-CSF (recombinant bovine granulocyte macrophage colony stimulating factor) from 0.2 mg to […] are administered at time 0 into 3-4 mammary glands from normal lactating Holstein dairy cattle. A total of 54 mammary gland quarters, 3-4 per group, are infused through the teat canal with various concentrations of recombinant bovine cytokines after the morning milking. Milk samples are collected and the number of viable somatic cells counted on a Coulter® ZM with a C256 Channelyzer. The data is expressed as the somatic cell count per ml of milk
These doses are guidelines for quantitative induction of somatic cells, but significant beneficial qualitative changes can be induced with lower doses. The specific biological activity for r-BoIL-1 as a chemoattractant is approximately 10,000 fold greater than r-BoIL-2, although the in vitro specific bioactivities are equivalent. Active IL-2 inhibition or decreased biostability in milk might explain this discrepancy. The peak number of cells after r-BoIL-1 infusion with a maximal tolerable dose is 4-5 fold greater than r-BoIL-2. The kinetics of PMN migration into the mammary gland is such that migration occurs 8- 24 hours sooner for r-BoIL-1 infusions […] the BolL-2 infusion depending upon the dose. The dominant cell type after r-BoIL-1 or r-BoIL-2 infusion is PMNs.

For test [2], the system named is S. aureus. Nature of the test: Prevention of S. aureus mastitis in lactating animals. It is filed as in vivo, S. aureus (in lactating Holstein dairy cattle). Conditions: for % CONTROL / % INFECTED: 1 mg, vs Control 2 (30 CFUs). From the text:
This maximal protection correlates with the peak quantitative biological response for this cytokine. […] This also correlates with the peak quantitative biological response of this cytokine and also marks the qualitative increase in phagocytosis and inducible superoxide, FIG. 2D & 2E.
^1 Single intramammary infusion administered after the PM milking. A
total of 100 mammary glands from 22 different lactating Holstein dairy
^2 All glands are free of bacteria on 5 successive samples after the
AM milking prior to the initial infusion.
^3 The total dose in mass of protein is indicated. The biological
^4 Infusions of cytokines were administerd simultaneously with S.
aureus 0, 24 or 48 hours proir to challenge with 30-200 CFUs of S.
^5 Individual quarters are considered cured if the milk samples remai
free of S. aureus. for 14 days after intramammary challenge with of S.
^6 The % Control = (1 - {% Infected After Therapy divided by Infected
in Control Quarters)} × 100.
*Quarters in Control 1 are challenged with 250 CFUs of S. aureus..
Quarters in Control 2 are challenged with 30 CFUs of S. aureus.

The subject of test [3] is milk PMNs. As to the kind of experiment: Phagocytosis of fluorescent beads by milk PMNs (flow cytometry) after intramammary infusion. In kind it is in vivo, bovine (Holstein dairy cattle). Conditions: FIG. 2H. The method, then:
(§1) FIGS. 2(A-I): Quantity and Quality of Milk PMNs from Mammary Glands Infused with r-BolL-1 or r-BoIL-2
(§2) A total of 12 mammary glands from normal lactating Holstein dairy cattle are infused through the teat canal with either 200 μg of r-BoIL-1; 2 mg of r-BoIL-2; or 1 mg of r-BoGM-CSF. Milk samples are collected and the number of viable somatic cells counted on a Coulter® ZM with a C256 Channelyzer. The data is expressed as the somatic cell count per ml of milk sampled at 16, 40, 64 and 88 hours after infusion for r-BoIL-1 (A); r-BoIL-2 (D); or r-BoGM-CSF(G). The total percentage of phagocytosis by milk PMNs (polymorphonuclear cells) is quantitatively measured by flow cytometry by measuring the percentage of cells ingesting 2μ fluorescent beads for r-BoIL-1 (B); r-BoIL-2(E); or r-BoGM-CSF(H). The total population is first gated by forward angle light scatter, FALS and 90° light scatter to only consider viable polymorphonuclear cells. The induction of superoxide after PMA (520.eta.g)stimulation is also monitored using a whole cell cytochrome-c reduction assay, for r-BoIL-1 (C); r-BoIL-2(F); or r-BoGM-CSF(I). PMNs from untreated milk could not be induced to produce superoxide, while peripheral blood PMNs are inducible in a range of 5-15 .eta.M O2 /Minute/10^7 PMNs.
For orientation: A flow cytometer gives signals particle by particle.

The test system of test [4] is milk PMNs. As to the kind of experiment: Inducible superoxide of milk PMNs after PMA stimulation (cytochrome-c reduction). In kind it is in vivo, bovine (Holstein dairy cattle). The note with it: r-BoGM-CSF, vs resident PMNs, FIG. 2I. Here is the method: as §1, §2
The test system of test [5] is milk PMNs. As to the kind of experiment: Quantity of milk PMNs after intramammary infusion. In kind it is in vivo, bovine (Holstein dairy cattle). The method, then: as §1, §2
The nature of test [6]: Specific biological activity of recombinant cytokine protein. The note with it: mass of protein.

Regarding `CC(=O)OCC1=C(C(=O)O)N2C(=O)[C@@H](NC(=O)CSc3ccncc3)[C@H]2SC1` [Na Cephapirin, sodium cephapirin, reference compound], in the test on S. aureus [1] (200 mg, interval 12 hrs), the “% CURES” value amounted to 42%, the “% RELAPSE” value is 51% and the “% RESPONSE” value is 86%. Besides, the relapse rate with S. aureus [1] (as quoted in text of Example 5) was determined as 57%.

B1: recombinant bovine granulocyte macrophage colony stimulating factor (protein, UniProt P11052 18-143, looked up)
Granulocyte-macrophage …: APTRPPNTATRPWQHVDAIKEALSLLNHSSDTDAVMNDTEVVSEKFDSQEPTCLQTRLKLYKNGLQGSLTSLMGSLTMMATHYEKHCPPTPETSCGTQFISFKNFKEDLKEFLFIIPFDCWEPAQK
On to B1, for which, in the test on Bovine Mammary Gland (intramammary infusion of up to 5 mg), the “influx of cells into the mammary gland” value is listed as “fails to elicit any significant influx of cells into the mammary gland”. In addition, the “infiltration of somatic cells into the milk” value with Bovine Mammary Gland (intramammary infusion, lactating cattle, FIG. 1) was “no significant chemoattractant activity”. For the same molecule, the “% CONTROL” value in the test with S. aureus [2] (-24 hrs) and in the test on S. aureus [2] (-48 hrs) was 76% throughout. Further, the “% INFECTED” value with S. aureus [2] (-24 hrs) and in the test on S. aureus [2] (-48 hrs) was 20% throughout. Besides, the “protection from S. aureus” value in the test on S. aureus [2] (administered 24 and 48 hours prior to challenge) is “good protection from S. aureus”. For the same molecule, the “protection from subsequent S. aureus challenge” value in the test on S. aureus [2] (intramammary infusion, Table 1) is reported as “capable of protecting the host from subsequent S. aureus challenge”. Besides, in the test on milk PMNs [3] (24 and 48 hours), the “phagocytic ability of the cells in the milk of treated glands” value is reported as “increase phagocytic ability”. Besides, in the test with milk PMNs [3] (r-BoGM-CSF), the “percent of cells which are phagocytic” value was “enhanced”. Further, in the test on milk PMNs [3] (r-BoGM-CSF, up to 112 hrs), the “increase in phagocytosis, duration” value was “maintained above pre-infusion levels for up to 112 hrs”. The inducible superoxide production result with milk PMNs [4] is listed as “increased over the resident PMNs”. The “quantitative changes in milk PMNs” value in the test with milk PMNs [5] (as summarised in Example 4) was “only minor quantitative changes in milk PMNs”. In addition, the “quantitative increase in milk PMNs” value with milk PMNs [5] (even with a 5 mg intramammary dose, FIG. 2G) is listed as “fails to elicit any significant quantitative increase in milk PMNs”. Further, the biological activity in test [6] is recorded as 38,000 Units/μg.
